Data on 6 molecules can be found in patent US20150098900A1 (Genentech, published 2015).

Experiment [1] has as its target T1, human FcRH5c (full length human FcRH5) (human, UniProt Q96RD9 16-977).
T1 construct: Used on transfected SVT2, 293, EJM and OPM2 cells and endogenously on MOLP-2 cells and CD19+ B cells; also called IRTA2c; huFcRH5
T1 sequence: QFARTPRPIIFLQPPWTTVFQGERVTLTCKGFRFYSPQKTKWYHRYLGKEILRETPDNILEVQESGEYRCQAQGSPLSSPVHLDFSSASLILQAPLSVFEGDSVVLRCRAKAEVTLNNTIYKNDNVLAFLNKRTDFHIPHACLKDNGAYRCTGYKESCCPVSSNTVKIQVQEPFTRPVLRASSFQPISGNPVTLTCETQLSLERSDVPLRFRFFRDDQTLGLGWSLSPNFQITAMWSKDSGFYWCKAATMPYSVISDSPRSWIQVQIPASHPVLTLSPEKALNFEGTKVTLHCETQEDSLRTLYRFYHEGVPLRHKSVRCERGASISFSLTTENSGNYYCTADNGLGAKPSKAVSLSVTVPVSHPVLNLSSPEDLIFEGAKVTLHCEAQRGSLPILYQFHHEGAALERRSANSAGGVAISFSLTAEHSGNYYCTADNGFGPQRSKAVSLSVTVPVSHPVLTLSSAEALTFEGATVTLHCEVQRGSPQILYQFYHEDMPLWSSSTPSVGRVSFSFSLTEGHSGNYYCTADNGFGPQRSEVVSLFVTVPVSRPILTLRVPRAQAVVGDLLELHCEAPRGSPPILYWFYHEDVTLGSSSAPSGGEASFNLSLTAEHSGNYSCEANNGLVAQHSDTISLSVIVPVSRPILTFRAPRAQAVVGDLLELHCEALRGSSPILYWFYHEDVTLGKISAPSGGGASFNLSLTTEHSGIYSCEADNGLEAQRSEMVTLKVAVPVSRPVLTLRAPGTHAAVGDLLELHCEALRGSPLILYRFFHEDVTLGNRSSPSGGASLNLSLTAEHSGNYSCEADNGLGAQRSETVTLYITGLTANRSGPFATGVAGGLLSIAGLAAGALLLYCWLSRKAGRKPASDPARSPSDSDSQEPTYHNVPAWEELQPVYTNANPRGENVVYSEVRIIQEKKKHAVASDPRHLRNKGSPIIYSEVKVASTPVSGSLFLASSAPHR
The experiment can be described thus: FACS, EJM cells transfected with human FcRH5, anti-mouse Alexa-647; negative control. Background: Flow cytometry measures light scatter and fluorescence of single cells or particles in a stream.

The target of experiment [2] is T1, human FcRH5c (full length human FcRH5). Put plainly: FACS, OPM2 cells transfected with human FcRH5, anti-mouse Alexa-647; negative control.
Experiment [3] concerns the target T2, soluble FcRH5a isoform with C-terminal HIS-expression tag (human, UniProt Q96RD9-3 16-759).
T2 construct: mature; also called IRTA2a
T2 sequence (looked up): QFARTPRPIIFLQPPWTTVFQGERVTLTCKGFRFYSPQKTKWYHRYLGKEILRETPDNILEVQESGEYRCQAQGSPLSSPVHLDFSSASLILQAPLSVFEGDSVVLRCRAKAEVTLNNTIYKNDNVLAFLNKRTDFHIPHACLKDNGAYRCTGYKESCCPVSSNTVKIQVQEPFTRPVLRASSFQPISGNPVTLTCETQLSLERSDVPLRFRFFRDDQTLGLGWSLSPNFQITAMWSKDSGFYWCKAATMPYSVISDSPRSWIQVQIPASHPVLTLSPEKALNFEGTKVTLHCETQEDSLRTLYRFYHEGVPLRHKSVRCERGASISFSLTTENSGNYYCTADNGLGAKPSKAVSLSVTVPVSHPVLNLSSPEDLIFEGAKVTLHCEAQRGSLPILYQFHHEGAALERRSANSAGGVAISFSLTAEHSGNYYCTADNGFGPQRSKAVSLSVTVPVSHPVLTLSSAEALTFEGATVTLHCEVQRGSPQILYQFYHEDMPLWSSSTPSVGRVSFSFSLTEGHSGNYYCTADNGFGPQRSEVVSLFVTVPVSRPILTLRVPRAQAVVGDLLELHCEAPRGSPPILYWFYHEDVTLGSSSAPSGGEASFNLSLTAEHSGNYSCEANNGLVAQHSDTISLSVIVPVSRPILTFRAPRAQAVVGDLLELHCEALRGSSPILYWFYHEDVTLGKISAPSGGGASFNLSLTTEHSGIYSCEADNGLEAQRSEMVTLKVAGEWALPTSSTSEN
The experiment can be described thus: ELISA, His-tagged soluble FcRH5a captured by anti-His, anti-mouse HRP, OD 650. Here is the method:
For this, 293 cells were transfected to express the soluble isoform with C-terminal HIS-expression tag. Expression of FcRH5a protein was confirmed with Western blot analysis using anti-HIS antibody. A 65 kD band was detected in conditioned media from FcRH5a but not vector transfected cells (not shown). For the ELISA, plates were coated with anti-HIS capture antibody and incubated 1 hour with 1:10 diluted conditioned media including the HIS-tagged soluble FcRH5a isoform. The E11 monoclonal antibodies were used for detection in 1-0.001 ug/ml concentration, incubated for 1 hour followed by incubation with goat anti-mouse HRP antibody and finally with TMB-substrate.
For orientation: An ELISA detects its analyte on a solid surface through an enzyme-linked reagent.

Experiment [4] addresses T1, human FcRH5c (full length human FcRH5). The experiment can be described thus: FACS, 293 cells with wild type FcRH5c, supernatants 2.5 ug/ml, anti-mouse PE. The procedure:
Two separate tests were designed to address dependency of binding on the presence of membrane proximal Ig-domain 9 (E11). First a truncated human FcRH5c mutant was generated that lacks Ig-domains 6-9 (amino acids 464-850 of SEQ ID NO:1) including the expected binding site for the antibodies derived from E11 immunization. This construct with N-terminal gD-tag was expressed in 293 cells and subjected to 2.5 ug/ml subclone supernatants followed by PE labeled goat anti-mouse secondary antibody (1:1000 dilution). None of the tested subclones bound to 293 cells that express the truncated human FcRH5c (FIG. 4A). In contrast binding was detected to 293 cells that express wild type human FcRH5c. Binding of gD or non-isoform selective antibody clone (10A8) was not altered by the mutation.

Experiment [5] has the same target. The experiment can be described thus: FACS, MOLP2 cells (endogenous FcRH5), 4 ug/ml. Here is the method: (§1) To test binding to endogenously FcRH5 expressing cancer cells or FcRH5 transfected cancer cells, cells were lifted using EDTA/PBS. 1×10⁵ cells were suspended in 100 ul and incubated […] with primary antibodies (1 volume of non-IgG quantitated subclone supernatant, 4 ug/ml IgG quantified subclone supernatant or […] purified monoclonal antibodies). Cells were washed twice with FACS buffer (PBS 1% BSA 2 mM EDTA) and incubated with 1:1000 dilution of goat anti-mouse secondary labeled with PE or 1:100 of goat anti-mouse APC. Cells were washed twice with FACS buffer and Flow cytometry analysis was done on a FACSCalibur. Direct […] of antibodies was done according to manufacturer's protocol (Invitrogen), when indicated. To analyze binding to NK or B cells, 1 million human PBMC were incubated with 4 ug/ml IgG quantified subclone supernatants for 60 min, washed and incubated with 1:100 dilution of goat anti-mouse secondary labeled with APC. Cells were then washed again twice and stained using anti-CD56 (PE; BD Biosciences #555516) and anti-CD19 (PE; BD Biosciences #340364) prior flow cytometry and analysis of binding to human CD56+ and CD19+ cells.

The target in experiment [6] is T3, FcRH3 endogenously expressed on human NK cells (CD56+ cells of PBMC) (human, UniProt Q96P31 18-734).
T3 construct: whole, on cells; FcRH1 was also detected on CD56+ cells; also called endogenously expressed FcRH3
T3 sequence (looked up): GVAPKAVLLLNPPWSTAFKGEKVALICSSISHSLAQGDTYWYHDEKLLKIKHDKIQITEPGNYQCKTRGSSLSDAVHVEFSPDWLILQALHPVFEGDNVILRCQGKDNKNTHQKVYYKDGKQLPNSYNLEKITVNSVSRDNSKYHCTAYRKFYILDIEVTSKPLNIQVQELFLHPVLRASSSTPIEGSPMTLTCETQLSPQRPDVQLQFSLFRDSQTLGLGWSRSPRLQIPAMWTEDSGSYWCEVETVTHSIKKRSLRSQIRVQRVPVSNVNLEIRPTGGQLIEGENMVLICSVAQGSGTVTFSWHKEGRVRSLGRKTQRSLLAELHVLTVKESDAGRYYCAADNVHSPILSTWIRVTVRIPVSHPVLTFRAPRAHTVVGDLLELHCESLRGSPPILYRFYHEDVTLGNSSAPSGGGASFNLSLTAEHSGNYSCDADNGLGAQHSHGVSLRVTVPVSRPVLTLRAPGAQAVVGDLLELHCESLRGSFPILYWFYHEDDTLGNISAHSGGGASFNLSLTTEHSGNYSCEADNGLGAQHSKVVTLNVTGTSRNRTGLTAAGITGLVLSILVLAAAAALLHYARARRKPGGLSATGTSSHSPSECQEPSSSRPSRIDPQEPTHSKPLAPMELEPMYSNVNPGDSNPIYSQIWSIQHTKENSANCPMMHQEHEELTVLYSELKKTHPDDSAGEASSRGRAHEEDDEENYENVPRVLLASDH
The experiment can be described thus: FACS, CD56+ NK cells of human PBMC, anti-mouse APC. Here is the method: as §1
Since the overall signal in the FcRH3-expressing SVT2 cells was low, further testing was done using PBMCs from healthy donors. […]

Experiment [7] concerns the target T1, human FcRH5c (full length human FcRH5). The experiment can be described thus: FACS, APC-labelled antibodies on SVT2 cells with full-length human FcRH5.
The target is the same in experiment [8]. Put plainly: FACS, MOLP2 cells (endogenous FcRH5), 4 ug/ml; legend printed under FIG. 3E. Here is the method: as §1

Where a chain is given by its changes, count along the chain named.

One may read the EC50 (read off the curve) as the midpoint of the concentration-response curve. A higher EC50 (read off the curve) goes with a need for much substance.

In the case of mIgG (antibody), the Mean:FL4-H in experiment [1] amounted to 10.3; in experiment [2] it was 6.43.

B1: 2H7.3 (antibody, IgG2b, V domains shown)
VH: EVQLQQSGPELWKPGASVKMSCKASGYTFTDYYMKWVKQTHGKSLEWIGDINPNNGETFYSQKFKGKATLTVDKSSTTAYMQLNSLTSEDSAVYYCARGLYRFDYWGQGTTLTVSSASTKGPSVFPLAP
VL: EIVLTQSPATLSVTPGDSVSLSCRASQNIRNNLHWYQQKSHESPRLLIKFTSQSISGIPSRFTGSGSGTDFTLSINSVETEDFGMYFCQQSNNWPQYTFGGGTKLEIKRTVAA
notes: Parent 2H7, subclone 2H7.3 and purified antibody treated as one; also called 2H7.3.mIgG2b
As to B1, the binding result in experiment [3] and in experiment [4] was “binds” each time.

B2: 5A10.1.3 (antibody, IgG2b, V domains shown)
VH: EVQLQQSGPELWKPGASVKMSCKASGYTFTDYYMKWVKQSHGKSLEWIGDINPNNGETFYNQKFKGKATLTVDKSTSTAYMELNSLTTEDSAVYYCARGLYRFDYWGQGTTLTVSSAASTKGPSVFPLAP
VL: B1 VL with E1D, T10N, T14I, H41Q, T51A, I55M, I58T, S74T, S77T
notes: parent 5A10 and subclone 5A10.1 treated as the same antibody; also called 5A10.1.mIgG2b
For the molecule B2, the “EC50 (read off the curve)” value in experiment [3] was approximately 0.02 ng/mL.

B3: 3G7.1.5 (antibody, IgG2a, V domains shown)
VH: EVQLQQSGPELVKPGASVKMSCKASGYTFTDYYMKWVRQNHGKRLEWIGDINPYNGDTFYNQKFKDKATLTVDKSSSTAYMQFNSLTSEDSAVYYCARGLYFFHYWGQGTTLTVSSASTKGPSVFPLAP
VL: DIVLIQSPATLSVTLGGSVSLSCRASQSISNNLHWYQQKSHESPRLLIKFASQSISGIPSRFRGSGSGTDFTLTINSVETEDFGIYFCQQSNNWPQYTFGGGTKLELKRTVAA
notes: parent 3G7 and subclone 3G7.1 treated as the same antibody; also called 3G7.1.mIgG2a
With B3, the binding result in experiment [5] is listed as “binds”.

B4: 1G7.2 (antibody, IgG1, V domains shown)
VH: EVQLQESGPGLVQPSQSLSITCTVSGFSLTRFGVHWVRQSPGKGLEWLGVIWRGGSTDYNAAFMSRLTITKDNSKSQVFFKLNSLKVDDTAIYYCSNHYYGSSDYALDNWGQGTSVTVSSASTKGPSVFPLAP
VL: DIVMTQSHKIMSTSVGDRVSITCKASQDVSNIVVWFQQKPGQSPNLLIYSASYRYTGVPDRFTGSGSGTDFTFTISSVQAEDLAVYYCQQHYSSPYTFGGGTKLEIKRTVAA
notes: Parent 1G7, subclone 1G7.2 and purified 1G7.2.mIgG1 treated as one antibody; also called 1G7.2.mIgG1
Turning to B4, the results for the binding result in experiment [6], in experiment [3] and in experiment [7] were “no binding (tested: 4 ug/ml)”, “no binding” and “binds”, respectively.

B5: 5F1.1.5 (antibody, IgG2a, V domains shown)
VH: QVQLQQSGADLVRPGTSVKVSCKASGYAFTNYLIEWVKQRPGQGLEWIGVINPGSGGTNYNEKFKGKATLTADKSSSTAYMQLSSLTSDDSAVYFCARTRNYGYVIDYWGQGTTLTVSSASTKGPSVFPLAP
VL: QAVVTQESALTTSPGETVTLTCRSSTGTVTTSNFANWVQEKPDHLFTGLIGGTSNRAPGVPARFSGSLIGDKAALTITGAQTEDEAIYFCVLWCSNLWVFGGGTKLTVLGQPKAA
notes: parent 5F1 and subclone 5F1.1 treated as the same antibody; also called 5F1.1.mIgG2a
For B5, in experiment [8], the binding result is “binds”.
